Data from patent US12606635B2, “Glypican-2-binding moieties, chimeric antigen receptors and uses thereof” (Nanjing Legend Biotech Co., Ltd., priority 2020, dated 2026).

Key:
[1] = test system: GPC2 negative human epidermoid carcinoma cell line A-431; experiment: In vitro cytotoxicity assay (LDH), A-431; type: cell-based; details: FIG. 7G
Method: (§1) The pre-activated T cells were transduced with lentivirus stock in the presence of […] polybrene and 300 IU/mL IL-2. T cells and lentivirus were centrifuged at 1000 g, 32° C. for 1 h and placed in humidified cell culture incubator for transgene expression under suitable conditions. On day 5 or day 7 or day 10 post-transduction, transduced T cells were harvested and co-incubated with tumor cells at an effector (CAR T) to target cell ratio of 10:1 or 5:1 or 2:1 or 1:1 or 0.2:1 for 20 hours. Target cells were human neuroblastoma cell line SH-SY5Y (ATCC, #CRL-2266), human neuroblastoma cell line IMR-32 cells (ATCC, #CCL-127), or human epidermoid carcinoma cell line A-431 (ATCC, #CRL-1555). To assay the cytotoxicity of CAR T cells on tumor cells, the Cytotoxicity Detection Kit (LDH) (Roche, #11644793001) assay reagents were prepared according to manufacturer's protocol. Reaction mix was added to the cell-free supernatant of each sample to detect the LDH released from cells. Optical densities at OD492 nm and OD650 nm were measured by PHERStar Microplate Reader. Baseline LDH released from the target cell in the absence of effector cells and effector cell in the absence of target cells were subtracted from the total LDH amount. The target maximum release was obtained by adding Triton-X100 at a final concentration of 1% to target cells in the absence of effector cells at the time when the cytotoxicity assays initiated. […] The specific cytotoxicity was calculated by the formula: % Target cell lysis=100*[(OD CAR T cell+Target cell)−(OD CAR T cell)−(OD Target cell)+(OD Buffer background)]/(OD Target Maximum release−OD Target Minimum release).
(§2) On day 5 or day 8 or day 10 post-transduction, transduced T cells were harvested and co-incubated with tumor cells at an effector (CAR T) to target cell ratio of 10:1 or 1:1 or 0.2:1 for 20 hours. To assay the cytotoxicity of CAR T cells on tumor cells, the Cytotoxicity Detection Kit (LDH) (Roche, #11644793001) was added to the culture supernatant and the specific cytotoxicity for each CAR T cell construct was measured as described in Example 6.

[2] = test system: neuroblastoma SH-SY5Y xenograft; type: in vivo, NCG mice
Method: A single dose of untransduced T cells (10×10^6) or CAR T cells (5×10^6) was administered intravenously to tumor engrafted mice 9 days after tumor inoculation (FIG. 9A). […] At the end of obversion, 100% of monovalent CAR T cells (CAS70950VH6-BBz, CAS72669VH6-BBz) and 80% of multi-valent CAR T cells (CAS70950VH6-AS71529VH6-BBz) treated mice were alive (FIG. 9A). At day 42 post treatment, 2/5 mice (40%) treated with CAS72669VH6-BBz expressing CAR T cells were tumor-free and 3/5 mice (60%) treated with CAS70950VH6-AS71529VH6-BBz expressing CAR T cells were tumor-free without recurrence. […] The data highlighted the superiority of VHH-based CAR T cells in tumor regression and protection of mice from disease progression.
Moreover, the expansion and persistence of CAR T cells in vivo are also considered as critical predictors of durable clinical tumor regression in patients with cancer. […] Average 5.00±6.42% of CAR T cells were found in the peripheral blood of NCG mice treated with 5×10^6 CAS70950VH6-AS71529VH6-BBz CAR T cells, whereas less than 1% CAR T cells were detected in CAS70950VH6-BBz, CAS72669VH6-BBz and CAS71529VH6-BBz expressing CAR T groups. Expansion of CAR T cells in the CAS70950VH6-AS71529VH6-BBz group was inversely correlated with tumor size over time.

[3] = test system: human neuroblastoma cell line SH-SY5Y; experiment: In vitro cytotoxicity assay (LDH), SH-SY5Y; type: cell-based; details: for specific percentage lysis: SH-SY5Y, effector to target ratio 10:1, 20 hours, FIG. 8A
Method: The pre-activated T cells were transduced with lentivirus stock in the presence of […] polybrene and 300 IU/mL IL-2. T cells and lentivirus were centrifuged at 1000 g, 32° C. for 1 h and placed in humidified cell culture incubator for transgene expression under suitable conditions. On day 5 or day 7 or day 10 post-transduction, transduced T cells were harvested and co-incubated with tumor cells at an effector (CAR T) to target cell ratio of 10:1 or 5:1 or 2:1 or 1:1 or 0.2:1 for 20 hours. Target cells were human neuroblastoma cell line SH-SY5Y (ATCC, #CRL-2266), human neuroblastoma cell line IMR-32 cells (ATCC, #CCL-127), or human epidermoid carcinoma cell line A-431 (ATCC, #CRL-1555). To assay the cytotoxicity of CAR T cells on tumor cells, the Cytotoxicity Detection Kit (LDH) (Roche, #11644793001) assay reagents were prepared according to manufacturer's protocol. Reaction mix was added to the cell-free supernatant of each sample to detect the LDH released from cells. Optical densities at OD492 nm and OD650 nm were measured by PHERStar Microplate Reader. Baseline LDH released from the target cell in the absence of effector cells and effector cell in the absence of target cells were subtracted from the total LDH amount. The target maximum release was obtained by adding Triton-X100 at a final concentration of 1% to target cells in the absence of effector cells at the time when the cytotoxicity assays initiated. Supernatant from target cells in the absence of effector cells was used for target minimum release. The specific cytotoxicity was calculated by the formula: % Target cell lysis=100*[(OD CAR T cell+Target cell)−(OD CAR T cell)−(OD Target cell)+(OD Buffer background)]/(OD Target Maximum release−OD Target Minimum release).
as §2

[4] = test system: human neuroblastoma cell line IMR-32; experiment: In vitro cytotoxicity assay (LDH), IMR-32; type: cell-based; details: for cytolytic activity compared with monovalent CAR T cells: co-cultured with IMR-32, FIG. 8C
Method: as §1, §2

SH-SY5Y = experiment: IFNγ release in co-culture with SH-SY5Y; type: cell-based, human; details: Example 7, co-culture with SH-SY5Y, FIG. 8D-8F
Description: (§3) In addition to the cytotoxicity data above, supernatants from the in vitro co-culture assays were also collected to assess CAR T cells-induced cytokine release, e.g., release of interferon gamma (i.e., IFNγ), as another indicator of cytotoxicity, was quantified using a HTRF human IFNγ AlphaLISA kit (Perkin Elmer, #62HIFNGPEH) per manufacturer's instruction. […] No significant cytokine release were detected against GPC2-negative cell line A-431.
(§4) Supernatants from the in vitro co-culture assays were collected to assess CAR T cells-induced cytokine release, e.g., interferon gamma (i.e., IFNγ) release as described in Example 6. […] IFNγ was not induced in GPC2-negative A-431 cells. […] Cytokine release data was consistent with the in vitro cytotoxicity data.

IMR-32 = experiment: IFNγ release in co-culture with IMR-32; type: cell-based, human; details: Example 7, co-culture with IMR-32, FIG. 8D-8F
Description: as §3, §4

[5] = 5×10^6 CAR T cells i.v., FIG. 9A
[6] = 1:1 effector to target ratio, FIG. 8B

B1: CAS72669VH6-BBz: humanized VHH anti-GPC2 CAR (4-1BB, CD3ζ), SEQ ID NO: 226; tested as CAR T cells (protein)
chain: MALPVTALLLPLALLLHAARPQVQLVESGGGVVQPGGSLRLSCAASRFTYSSYCMGWIRQAPGKGREGVAIFYTGGGRTYYADSVKGRFTISQDNSKNTLYLQMNSLRAEDTAVYYCVAGFYCSGGYWEGDFGYWGQGTLVTVSSTTTPAPRPPTPAPTIASQPLSLRPEACRPAAGGAVHTRGLDFACDIYIWAPLAGTCGVLLLSLVITLYCKRGRKKLLYIFKQPFMRPVQTTQEEDGCSCRFPEEEEGGCELRVKFSRSADAPAYKQGQNQLYNELNLGRREEYDVLDKRRGRDPEMGGKPRRKNPQEGLYNELQKDKMAEAYSEIGMKGERRRGKGHDGLYQGLSTATKDTYDALHMQALPPR
modifications: expressed in CAR T cells; CAS72669VH6-BBz
- cytotoxicity against GPC2 negative A-431 [1]: no cytotoxicity
- treated mice alive at the end of observation [2, 5]: 100%
- tumor regression compared with CAS71529VH6-BBz [2, 5]: more pronounced
- tumor-free mice (number of mice) ([2]; day 42 post treatment): 2/5
- tumor-free mice (percent) ([2]; day 42 post treatment): 40%
- tumor burden compared with untransduced T cell-treated group ([2]; fourteen days after treatment, 5×10^6 CAR T cells i.v., FIG. 9A): reduced tumor burden
- percentage of CAR T cells in peripheral blood ([2]; mouse, in vivo): less than 1%

B2: CAS71529VH6-AS70950VH6-BBz: bivalent tandem anti-GPC2 CAR (4-1BB, CD3ζ), SEQ ID NO: 242; tested as CAR T cells (protein)
chain: MALPVTALLLPLALLLHAARPEVQLVESGGGLVQPGGSLRLSCAVSEYRYSSRYCMGWFRQAPGKGREGVAAIDSNGSADYVDSVKGRFTISKDNSKNTLYLQMNSLRAEDTAMYYCAADHLAYDCYSGATSVFRYWGQGTLVTVSSGGGGSGGGGSGGGGSEVQLVESGGGLVQPGGSLRLSCAISEFTYKNTCVGWFRQAPGKGREGVAAIDSDGNTNYVDSVKGRFTISQDNSKNTVYLQMNSLRAEDTAMYYCAAGAYCGRLLLWIGNYAYWGQGTLVTVSSTTTPAPRPPTPAPTIASQPLSLRPEACRPAAGGAVHTRGLDFACDIYIWAPLAGTCGVLLLSLVITLYCKRGRKKLLYIFKQPFMRPVQTTQEEDGCSCRFPEEEEGGCELRVKFSRSADAPAYKQGQNQLYNELNLGRREEYDVLDKRRGRDPEMGGKPRRKNPQEGLYNELQKDKMAEAYSEIGMKGERRRGKGHDGLYQGLSTATKDTYDALHMQALPPR
modifications: expressed in CAR T cells; CAS71529VH6-AS70950VH6-BBz
- specific percentage lysis [3]: 70.33±4.93%
- cytolytic activity compared with monovalent CAR T cells [4]: equivalent or better cytolytic activity
- IFNγ release (SH-SY5Y): high levels of IFNγ
- IFNγ release (IMR-32): high levels of IFNγ

B3: CAS72052VH5-AS71529VH5-BBz: bivalent tandem anti-GPC2 CAR (4-1BB, CD3ζ), SEQ ID NO: 240; tested as CAR T cells (protein)
chain: MALPVTALLLPLALLLHAARPQVQLVESGGGVVQPGGSLRLSCAVSGFRYASYCMGWFRQAPGKGLEGVAAIHSDGIIRYAESVKGRFTISKDNSKNTLYLQMNSLRAEDTAVYYCAAGAYCGADAILTLYDYAFWGQGTLVTVSSGGGGSGGGGSGGGGSEVQLVESGGGLVQPGGSLRLSCAVSEYRYSSRYCMGWFRQAPGKGLEGVSAIDSNGSADYVDSVKGRFTISKDNSKNTLYLQMNSLRAEDTAVYYCAADHLAYDCYSGATSVFRYWGQGTLVTVSSTTTPAPRPPTPAPTIASQPLSLRPEACRPAAGGAVHTRGLDFACDIYIWAPLAGTCGVLLLSLVITLYCKRGRKKLLYIFKQPFMRPVQTTQEEDGCSCRFPEEEEGGCELRVKFSRSADAPAYKQGQNQLYNELNLGRREEYDVLDKRRGRDPEMGGKPRRKNPQEGLYNELQKDKMAEAYSEIGMKGERRRGKGHDGLYQGLSTATKDTYDALHMQALPPR
modifications: expressed in CAR T cells; CAS72052VH5-AS71529VH5-BBz
- specific percentage lysis [3]: 83.00±4.58%
- cytolytic activity compared with monovalent CAR T cells [4]: equivalent or better cytolytic activity
- IFNγ release (SH-SY5Y): high levels of IFNγ
- IFNγ release (IMR-32): high levels of IFNγ

B4: CAS71529VH5-BBz: humanized VHH anti-GPC2 CAR (4-1BB, CD3ζ), SEQ ID NO: 222; tested as CAR T cells (protein)
chain: MALPVTALLLPLALLLHAARPEVQLVESGGGLVQPGGSLRLSCAVSEYRYSSRYCMGWFRQAPGKGLEGVSAIDSNGSADYVDSVKGRFTISKDNSKNTLYLQMNSLRAEDTAVYYCAADHLAYDCYSGATSVFRYWGQGTLVTVSSTTTPAPRPPTPAPTIASQPLSLRPEACRPAAGGAVHTRGLDFACDIYIWAPLAGTCGVLLLSLVITLYCKRGRKKLLYIFKQPFMRPVQTTQEEDGCSCRFPEEEEGGCELRVKFSRSADAPAYKQGQNQLYNELNLGRREEYDVLDKRRGRDPEMGGKPRRKNPQEGLYNELQKDKMAEAYSEIGMKGERRRGKGHDGLYQGLSTATKDTYDALHMQALPPR
modifications: expressed in CAR T cells; CAS71529VH5-BBz
- cytotoxicity against SH-SY5Y [3, 6]: less than 30%
- cytotoxicity against IMR-32 [4, 6]: less than 30%
- IFNγ release (SH-SY5Y): high levels of IFNγ
- IFNγ release (IMR-32): high levels of IFNγ
